Patent JP2004097211A (dated 2004)

T1: CDR1抗原ペプチド
T1 peptide: RSSKSLLYSNGNTYLY

B1: i41SL1−2抗体の重鎖 (other)
VH: QVQLQHSGAELVRPGSSVKVSCKALGYTSTDYEIHWVKQTPVRGLEWIGAIHPGSDVIVYNQKFKGTATLTADKSSSTAYMELRSLTSEDSAVYYCTREGGSVDYVWGQGTLVTVSA
modifications: cysteines reduced with b-mercaptoethanol and alkylated with iodoacetamide (positions not stated)
B2: HpU−20抗体のL鎖 (protein)
VL: DVLMTQTPLSLPISLGDQASISCRSSQSIVQSNGNTYLEWYVQKPGQSPKLLIYKVSNRFSGVPDRFSGSGSGTDFTFKISRVEAEDLGVYYCIQGSHVPLTFGAGTKLELKRA
modifications: cysteines reduced with b-mercaptoethanol and alkylated with iodoacetamide (positions not stated)
B3: i41SL1−2抗体の軽鎖 (other)
VL: DIVMTQTQLTLTINIGQPASISCKSSQSLLDSDGKTYLNWLFQRPGQSPKRLIYLVSKLDSGVPDRFTGSGSGTDFTLKISRVEAEDLGVYYCWQGTHFPLTFGAGTKLELRRA
modifications: cysteines reduced with b-mercaptoethanol and alkylated with iodoacetamide (positions not stated)

How the values were obtained:
CDR1抗原ペプチド = molecular target: T1, CDR1抗原ペプチド; test: cell-based or functional assay
[1] = molecular target: ヘリコバクターピロリ菌のウレーアゼ (ヘリコバクターピロリ菌 (Helicobacter pylori)) (UniProt P14916); test: cell-based or functional assay

| Binder | 回転数(kcat) (CDR1抗原ペプチド) | 触媒効率(kcat/Km) (CDR1抗原ペプチド) | タンパク質分解実験 (SDS-PAGE, 1 h): decrease of the β subunit band against the control [1] [%] |
| --- | --- | --- | --- |
| B1 | ~0.005 fold of trypsin (trypsin measured on another synthetic peptide) | ~0.1 fold of trypsin (trypsin measured on another synthetic peptide) | – |
| B2 | – | – | 26.7 |
| B3 | ~0.005 fold of trypsin (trypsin measured on another synthetic peptide) | – | – |
